Blank lines part the entries; values can stand above or below the binder they belong to.
Key:
[1] = biological target: T1, human GFRAL expressed on the surface of HEK293 cells (co-expressed with human RET) (human, UniProt Q6UXV0 19-394); test: cell-based or functional assay
T1 sequence: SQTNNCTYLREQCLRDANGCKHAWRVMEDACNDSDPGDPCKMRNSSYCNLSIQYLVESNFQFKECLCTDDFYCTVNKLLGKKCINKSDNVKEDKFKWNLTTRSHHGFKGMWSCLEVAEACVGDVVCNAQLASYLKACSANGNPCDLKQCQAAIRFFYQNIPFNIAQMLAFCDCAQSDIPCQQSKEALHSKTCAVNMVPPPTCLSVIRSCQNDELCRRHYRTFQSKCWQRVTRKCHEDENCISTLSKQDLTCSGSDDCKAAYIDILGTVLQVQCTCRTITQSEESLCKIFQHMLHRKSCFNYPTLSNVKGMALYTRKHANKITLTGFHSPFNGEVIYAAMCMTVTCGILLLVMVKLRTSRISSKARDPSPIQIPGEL

[2] = biological target: T2, mouse GFRAL-Fc fusion (R&D catalogue no. 9844-GR-050050) (mouse, UniProt Q6SJE0 20-349); test: SPR, KD for mouse GFRAL compared with KD for human GFRAL
T2 construct: Bought fusion protein; not shown: Fc part of the bought fusion
T2 sequence: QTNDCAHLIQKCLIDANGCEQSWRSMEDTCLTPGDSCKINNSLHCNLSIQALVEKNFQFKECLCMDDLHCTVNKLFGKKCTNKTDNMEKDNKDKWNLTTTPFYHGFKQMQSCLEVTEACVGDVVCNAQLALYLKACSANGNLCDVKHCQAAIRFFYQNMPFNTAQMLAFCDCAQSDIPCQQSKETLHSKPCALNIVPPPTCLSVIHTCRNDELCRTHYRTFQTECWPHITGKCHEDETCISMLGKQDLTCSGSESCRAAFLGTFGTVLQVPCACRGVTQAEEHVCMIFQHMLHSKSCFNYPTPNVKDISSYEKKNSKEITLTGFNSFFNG

[3] = biological target: T3, His-tagged human GFRAL (recombinant soluble GFRAL protein, R&D catalogue no. 9647-GR-050) (human, UniProt Q6UXV0 19-351); test: SPR sandwich assay: row antibody captured via anti-Fc, GFRAL antigen added, then GDF15 injected as analyte (competitor: GDF15)
T3 construct: Bought soluble protein; also called Human GFRAL with a 6His tag; GFRAL antigen; not shown: 6His tag
T3 sequence: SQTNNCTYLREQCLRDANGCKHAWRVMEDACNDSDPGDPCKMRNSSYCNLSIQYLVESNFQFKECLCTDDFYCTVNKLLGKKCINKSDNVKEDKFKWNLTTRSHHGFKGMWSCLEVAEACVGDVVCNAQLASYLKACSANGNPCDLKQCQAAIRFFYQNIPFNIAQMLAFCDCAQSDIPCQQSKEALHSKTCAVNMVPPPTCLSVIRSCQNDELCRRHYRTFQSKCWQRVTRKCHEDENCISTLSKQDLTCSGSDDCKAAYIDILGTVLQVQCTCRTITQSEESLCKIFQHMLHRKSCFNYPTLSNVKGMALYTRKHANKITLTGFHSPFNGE
Experimental: (§1) In this assay, pairs of antibodies are tested for their ability to simultaneously bind antigen. A first antibody is coupled via its Fc region to a solid support and the GFRAL antigen is added in solution, allowing formation of an antibody-antigen complex. A second antibody is then added in solution.
The same principle may be used to assess whether an antibody and a native ligand compete for binding to antigen. Thus, a test antibody is coupled to a solid support and the GFRAL antigen is added in solution, allowing formation of an antibody-GFRAL complex. GDF15 is then added in solution.

[4] = biological target: T1, human GFRAL expressed on the surface of …; test: cell-based or functional assay; remark: listed apart in the source
[5] = biological target: T3, His-tagged human GFRAL (recombinant …); test: SPR sandwich assay: row antibody captured via anti-Fc, GFRAL antigen added, then mAbQ injected as analyte (competitor: mAb Q)
Experimental: as §1

[6] = biological target: T3, His-tagged human GFRAL (recombinant …); test: SPR, antibody captured via anti-human Fc on CM4 chip, His-tagged human GFRAL as analyte, 25 C, 1:1 model
Experimental: (§2) Binding of antibodies to human GFRAL was measured by SPR using His-tagged human GFRAL as analyte, and test antibody coupled to the surface of a CM4 biosensor chip via immobilised anti-human Fc antibody. Running buffer was HBS-P+ buffer pH 7.4 (GE BR100671) with 1 mM CaCl₂. Antibodies were captured for 60 seconds at 1 μg/ml (˜80-140 RU captured, depending on the binder). Analyte (recombinant soluble GFRAL protein, R&D catalogue no. 9647-GR-050) was injected at 100, 25, 6.25, 1.56, 0.39, 0.098, 0.024 and 0 nM for 120 seconds association time at […] and dissociation was monitored for 1200 seconds. The chip surface was regenerated using 10 mM glycine pH 1.5. All experiments were performed at 25° C. Sensorgrams for each antibody were double subtracted (reference cell and 0 concentration). Data were fitted to a 1:1 binding interaction model. Sensorgrams were fitted using multiple cycle kinetics mode. […] FIG. 5.

[7] = biological target: T2, mouse GFRAL-Fc fusion (R&D catalogue …); test: SPR, antibody captured via anti-human Fc, mouse GFRAL-Fc fusion as analyte, method of Example 2
Experimental: as §2
Affinity for mouse GFRAL was determined by SPR by the same method as in Example 2 using a mouse GFRAL-Fc fusion (R&D catalogue no. 9844-GR-050050) as analyte. FIG. 6.

[8] = biological target: T3, His-tagged human GFRAL (recombinant …); test: SPR, KD for human GFRAL of QUEL-0301 compared with reference antibody mAb Q

EC50 (read off the curve) [1]: ~1 nM
B1: recombinant human GDF15 protein with 6-His tag (R&D Systems, 957-GD) (ligand, UniProt Q99988 197-308, looked up)
chain: ARNGDHCPLGPGRCCRLHTVRASLEDLGWADWVLSPREVQVTMCIGACPSQFRAANMHAQIKTSLHRLKPDTVPAPCCVPASYNPMVLIQKTDTGVSLQTYDDLLAKDCHCI

fold difference in affinity, human against mouse GFRAL [2]: ≤ 10 fold
resonance units after GDF15 injection [3]: 87.3 resonance units
IC50 (ERK phosphorylation HTRF assay, 4 nM GDF15) [4]: 2.8 nM
resonance units after mAbQ injection [5]: 306 resonance units
Kd [6]: 0.14 nM
koff [6]: 7.87e-05 s⁻¹
kon [6]: 561000 M⁻¹ s⁻¹
Kd [7]: 1.19 nM
koff [7]: 0.000112 s⁻¹
kon [7]: 93700 M⁻¹ s⁻¹
B2: QUEL-0101 (antibody, V domains shown)
VH: QVQLVESGGGVVQPGRSLRLSCAASGFAFNNYGMHWVRQGPGRGLEWVAIISYDGTTQYSVDSVKGRFTISRDNSKNTLYLQMNSLRTEDTALYYCAKEAGDFYGSGNYGYHKYGLDVWGQGTTVTVSS
VL: DIQMTQSPSSLSASVGDRVTITCRASQDISNYLAWYQQKPGKIPKLLIYAASTLQSGVPSRFSGSGSGTDFTLTISSLQPEDVASYYCQKYSSAPLTFGGGTKVEIK
notes: the antibody was captured via anti-human Fc antibody

fold difference in affinity, human against mouse GFRAL [2]: ≤ 1.5 fold
resonance units after GDF15 injection [3]: 83.9 resonance units
IC50 (ERK phosphorylation HTRF assay, 4 nM GDF15) [4]: 8.6 nM
resonance units after mAbQ injection [5]: 268 resonance units
Kd [6]: 0.0839 nM
koff [6]: 6.19e-05 s⁻¹
kon [6]: 738000 M⁻¹ s⁻¹
Kd [7]: 0.0648 nM
koff [7]: 9.9e-06 s⁻¹
kon [7]: 153000 M⁻¹ s⁻¹
B3: QUEL-0201 (antibody, V domains shown)
VH: QVQLVQSGAEVKEPGASVRVSCKASGYTFISHAIHWVRQAPGQRLEWMGWINAVNGNTKYSQKFQDRVTFTRDTSASTAYMDLNSLRAEDTALYYCAREGYTYGVHYSYGMDVWGQGTTVTVSS
VL: QSVLTQPPSVSGAPGQRVTISCTGSSSNIGAGYDVHWYQQLPGTVLKLLIYGNNNRPSGVPDRFSGSNSGTSASLAITGLQPEDEADYYCQSYDSSLSGYWVFGGGTKLTVL
notes: as for B2

resonance units after GDF15 injection [3]: 77.3 resonance units
IC50 (ERK phosphorylation HTRF assay, 4 nM GDF15) [4]: 9.4 nM
resonance units after mAbQ injection [5]: 298 resonance units
Kd [6]: 0.000988 nM
koff [6]: 9.72e-06 s⁻¹
kon [6]: 9.83e+06 M⁻¹ s⁻¹
fold difference in affinity against mAb Q [8]: ~4 fold
Kd [7]: 4.95 nM
koff [7]: 0.000524 s⁻¹
kon [7]: 106000 M⁻¹ s⁻¹
B4: QUEL-0301 (antibody, V domains shown)
VH: EVQLVESGGGLVQPGGSLRLSCAASGFTFSNSWMNWVRQTPGKGLEWVANIDQDGDQKYYVDSVKGRFTISRDNAKNSLYLQMNSLRAEDTAVYYCAREITGTTFDYWGQGTLVTVSS
VL: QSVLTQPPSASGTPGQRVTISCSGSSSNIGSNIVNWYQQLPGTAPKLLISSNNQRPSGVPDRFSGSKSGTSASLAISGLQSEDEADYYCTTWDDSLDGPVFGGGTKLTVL
notes: as for B2

Source: patent publication US20240182585A1 (CAMBRIDGE ENTERPRISE, published 2024)
